For experiment [1], the target named is HA of A/Vietnam/1203/04 on pseudotyped virus (H5-VN04 pseudovirus) (influenza A virus A/Vietnam/1203/04 …). The experiment is described as follows: cell-based or functional assay.
Experiment [2] addresses HA on infectious virus A/Brisbane/10/07 (H3N2-BR07) (influenza A virus A/Brisbane/10/07 …). The experiment is described as follows: cell-based or functional assay.
Experiment [3] addresses Recombinant full length HA of H1 A/Solomon Islands/3/06 (H1-SI06) (influenza A virus A/Solomon …). Kind of experiment: recombinant HA; footnote says SPR biosensor, methods describe BLI.
Experiment [4] addresses Recombinant full length HA of H1 A/Puerto Rico/8/34 (H1-PR8) (influenza A virus A/Puerto Rico/8/34 …, UniProt P03452 18-565). The experiment is described as above.
Experiment [5] addresses Recombinant full length HA of H14 A/mallard/Astrakhan/263/82 (H14-AS82) (influenza A virus …, UniProt P26136 18-568). Described as above.
Experiment [6] concerns the target Cell surface-expressed HA of A/Aichi/2/68 (H3-A2/68) (influenza A virus A/Aichi/2/68 (H3N2), UniProt P03437 17-566). The experiment is described as follows: flow cytometry on HA-transfected cells. On the technique in general: A flow cytometer gives signals particle by particle.
The target of experiment [7] is DTT reduced, trimeric HA2 (tHA2) of surface-expressed H3-A2/68 (influenza A virus A/Aichi/2/68 (H3N2), UniProt P03437 346-566). The experiment is described as follows: flow cytometry on HA-transfected cells after trypsin, pH 4.9 and DTT.

This note sets out measurements from US12076390 (Dana-Farber, dated 2024).

B1: 3I14 IgG1 (antibody, V domains shown)
VH: QVQLLESGGGVVQPGRSLRLSCAASGFTFSNYGMHWVRQAPGKGLEWVAIISFDGSKKYYANSVKGRSTISRDNSKNTLSLQMNSLGPEDTALYYCAKLPSPYYFDSRFVWVAASAFHFWGQGILVTVSS
VL: NFMLTQPPSASGTPGQRVTISCSGSSSNIGGNTVHWFQQLPGTAPKLLIYTNSLRPSGVPDRFSGSKSGTSASLAISGLQSEDEADYYCAAWDDSLNGQVFGGGTKLTVL
For B1, the “IC50, neutralization of H5-VN04 pseudovirus” value in experiment [1] is 0.0816 µg/mL. Also, the “IC50, neutralization of pseudovirus” value in experiment [1] came to 2.14 µg/mL. The “IC50, neutralization of infectious H3-BR07 virus” value in experiment [2] is 0.305 µg/mL. Also, the dissociation constant Kd in experiment [3] was determined as 0.03 nM; in experiment [4], 0.08 nM; in experiment [5] it was 0.29 nM. In addition, the figures for the binding result in experiment [6] and in experiment [7] were “binds” and “no binding”, respectively.

What is called Kd is the equilibrium constant for the complex coming apart.
